Measured values taken from PMC3753628, “Recognition and processing of double-stranded DNA by ExoX, a distributive 3′–5′ exonuclease”.

Assays:
ExoX (NT167) [1] = target: T1, ExoX (NT167) (Escherichia coli K12, UniProt P0AEK0 1-167); experiment: X-ray crystallography; Crystals by hanging drop, 16 C: complex I 0.1 M Tris-HCl pH 8.0, 0.2 M NaCl, 20% PEG 3350; complexes II and III 0.1 M MES pH 6.3, 17% PEG 6000; protein:DNA 1:0.6, 30 min at 4 C, gel filtration; settings: protein: recombinant; (pET24a, Ni-NTA); chain copies: 2; self-annealed, 2 copies of S2; 5' overhang 5 nt, mispaired 3' terminal nucleotides
T1 sequence: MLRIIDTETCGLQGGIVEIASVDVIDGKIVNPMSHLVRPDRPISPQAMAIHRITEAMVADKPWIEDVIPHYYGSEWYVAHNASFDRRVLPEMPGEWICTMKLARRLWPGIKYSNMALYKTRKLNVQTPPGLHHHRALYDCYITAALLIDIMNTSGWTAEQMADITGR

ExoX (NT167) [2] = target: T1, ExoX (NT167); experiment: X-ray crystallography; two undefined metal ions (MeA, MeB), probably inactive (Ni2+ or Na+); SeMet ExoX; 2:1 protein:DNA; Crystals by hanging drop, 16 C: complex I 0.1 M Tris-HCl pH 8.0, 0.2 M NaCl, 20% PEG 3350; complexes II and III 0.1 M MES pH 6.3, 17% PEG 6000; protein:DNA 1:0.6, 30 min at 4 C, gel filtration; settings: protein: recombinant; (pET24a, Ni-NTA; chain copies: 2; text says 17 bp)
ExoX (NT167) [3] = target: T1, ExoX (NT167); experiment: X-ray crystallography; 2 ExoX monomers per DNA; metal at MeA site; Crystals by hanging drop, 16 C: complex I 0.1 M Tris-HCl pH 8.0, 0.2 M NaCl, 20% PEG 3350; complexes II and III 0.1 M MES pH 6.3, 17% PEG 6000; protein:DNA 1:0.6, 30 min at 4 C, gel filtration; settings: protein: recombinant; (pET24a, Ni-NTA); chain copies: 2; blunt

B1: 3' recessed mismatch-containing dsDNA (complex III) (dsDNA)
DNA 1: GTCATTGTGGATCCGAG
DNA 2: GTCATTGTGGATCCGAG
- binding result (ExoX (NT167) [1]): binds

B2: 3' overhanging dsDNA (complex I) (dsDNA)
DNA 1: CGGATCCACAATGACCT
DNA 2: GTCATTGTGGATCCGAG
- binding result (ExoX (NT167) [2]): binds

B3: 12 bp blunt-ended dsDNA (complex II) (dsDNA)
DNA 1: CTCGAATCTACA
DNA 2: TGTAGATTCGAG
- binding result (ExoX (NT167) [3]): binds
